Source: patent publication US20250136677A1 (ZOETIS SERVICES, published 2025)

T1: wildtype feline IL-31 protein (Feline_IL31_wildtype) (feline)
T1 chain: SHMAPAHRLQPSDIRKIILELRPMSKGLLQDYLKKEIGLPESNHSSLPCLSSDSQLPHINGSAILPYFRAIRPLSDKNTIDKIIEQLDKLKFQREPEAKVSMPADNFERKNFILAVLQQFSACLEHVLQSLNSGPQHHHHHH

T2: canine IL-31 protein (Canine_IL31) (canine)
T2 chain: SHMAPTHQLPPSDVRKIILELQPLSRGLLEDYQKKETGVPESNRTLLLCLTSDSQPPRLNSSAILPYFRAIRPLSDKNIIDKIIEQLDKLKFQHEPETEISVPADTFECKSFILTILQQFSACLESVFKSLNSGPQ

T3: mutant feline IL-31 15H05 protein (Feline_IL31_15H05_mutant) (feline)
T3 sequence: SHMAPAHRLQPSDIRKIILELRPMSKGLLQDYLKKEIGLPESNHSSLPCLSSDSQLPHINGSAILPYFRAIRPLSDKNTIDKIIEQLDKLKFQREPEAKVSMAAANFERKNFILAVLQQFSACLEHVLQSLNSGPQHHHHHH

T4: equine IL-31 protein (Equine_IL31) (equine)
T4 construct: Recombinant equine IL-31
T4 chain: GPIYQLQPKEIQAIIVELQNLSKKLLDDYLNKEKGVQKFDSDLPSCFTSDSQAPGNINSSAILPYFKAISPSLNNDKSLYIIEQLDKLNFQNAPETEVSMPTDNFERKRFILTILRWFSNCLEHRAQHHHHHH

B1: ZTS-927 (antibody)
heavy: QVLLVQSGAEVRTPGASVKIFCKASGYSFTSYTIHWLRQAPAQGLEWMGNINPTSGYTENNQRFKDRLTLTADTSTNTAYMELSSLRSADTAMYYCARWGFKYDGEWSFDVWGAGTTVTVSSASTTAPSVFPLAPSCGTTSGATVALACLVLGYFPEPVTVSWNSGALTSGVHTFPAVLQASGLYSLSSMVTVPSSRWLSDTFTCNVAHPPSNTKVDKTVRKTDHPPGPKPCDCPKCPPPEMLGGPSIFIFPPKPKDTLSISRTPEVTCLVVDLGPDDSDVQITWFVDNTQVYTAKTSPREEQFNSTYRVVSVLPILHQDWLKGKEFKCKVNSKSLPSPIERTISKAKGQPHEPQVYVLPPAQEELSRNKVSVTCLIKSFHPPDIAVEWEITGQPEPENNYRTTPPQLDSDGTYFVYSKLSVDRSHWQRGNTYTCSVSHEALHSHHTQKSLTQSPGK
light: EIQMTQSPSSLSASPGDRVTITCRASQGISIWLSWYQQKPGNIPKVLINKASNLHIGVPSRFSGSGSGTDFTLTISSLEPEDAATYYCLQSQTYPLTFGGGTKLEIKRSDAQPSVFLFQPSLDELHTGSASIVCILNDFYPKEVNVKWKVDGVVQNKGIQESTTEQNSKDSTYSLSSTLTMSSTEYQSHEKFSCEVTHKSLASTLVKSFQRSECQRE
notes: Felinized 15H05 from a single GS plasmid
B2: A28 (antibody, V domains shown)
VH: QVLLVQSGAEVRTPGASVKIFCKASGYSFTSYTIHWLRQAPAQGLEWMGNINPTSGYTENNQRFKDRLTLTADTSTNTAYMELSSLRSADTAMYYCARWGFKYDGEWSFDVWGAGTTVTVSS
VL: EIQMTQSPSSLSASPGDRVTITCRASQGISIWLSWYQQKPGNIPKVLINKASNLHIGVPSRFSGSGSGTDFTLTISSLEPEDAATYYCLQSQTYPLAFGGGTKLEIK
B3: ZIL1 (recombinant fully canine antibody) (antibody, V domains shown)
VH: EVQLVESGGDLVKPGGSLRLSCVASGFTFSSYGMSWVRQAPGKGLQWVAHINSGGSSTYYADAVKGRFTISRDNAKNTLYLQMNSLRAEDTAVYYCVEVYTTLAAFWTDNFDYWGQGTLVTVSS
VL: QSVLTQPTSVSGSLGQRVTISCSGSTNNIGILAATWYQQLPGKAPKVLVYSDGNRPSGVPDRFSGSKSGNSATLTITGLQAEDEADYYCQSFDTTLDAYVFGSGTQLTVLR
B4: ZIL9 (recombinant fully canine antibody) (antibody, V domains shown)
VH: EVQLVESGGDLVKPPGSLRLSCVASGFTFSSYDMTWVRQAPGKGLQWVADVNSGGTGTAYAVAVKGRFTISRDNAKKTLYLQMNSLRAEDTAVYYCAKLGVRDGLSVWGQGTLVTVSS
VL: SSVLTQPPSVSVSLGQTATISCSGESLNEYYTQWFQQKAGQAPVLVIYRDTERPSGIPDRFSGSSSGNTHTLTISGARAEDEADYYCESAVDTGTLVFGGGTHLAVLR
B5: ZIL69 (recombinant fully canine antibody) (antibody, V domains shown)
VH: EVQLVESGGDLVKPAGSLRLSCVASGFTFSSYAMKWVRQAPGKGLQWVATINNDGTRTGYADAVRGRFTISKDNAKNTLYLQMDSLRADDTAVYYCTKGNAESGCTGDHCPPYWGQGTLVTVSS
VL: SSVLTQPPSVSVSLGQTATISCSGESLNKYYAQWFQQKAGQAPVLVIYKDTERPSGIPDRFSGSSAGNTHTLTISGARAEDEADYYCESAVSSETNVFGSGTQLTVLR
notes: also called CAN-ZIL69
B6: mouse:canine 11E12 chimera (antibody)
heavy: QVQLQQSGAELVKPGASVKLSCKASGYTFKYYDINWVRQRPEQGLEWIGWIFPGDGGTKYNETFKGKATLTTDKSSSTAYMQLSRLTSEDSAVYFCARGGTSVIRDAMDYWGQGTSVTVSSASTTAPSVFPLAPSCGSTSGSTVALACLVSGYFPEPVTVSWNSGSLTSGVHTFPSVLQSSGLYSLSSMVTVPSSRWPSETFTCNVAHPASKTKVDKPVPKRENGRVPRPPDCPKCPAPEMLGGPSVFIFPPKPKDTLLIARTPEVTCVVVDLDPEDPEVQISWFVDGKQMQTAKTQPREEQFNGTYRVVSVLPIGHQDWLKGKQFTCKVNNKALPSPIERTISKARGQAHQPSVYVLPPSREELSKNTVSLTCLIKDFFPPDIDVEWQSNGQQEPESKYRTTPPQLDEDGSYFLYSKLSVDKSRWQRGDTFICAVMHEALHNHYTQESLSHSPGK
light: DIVLTQSPASLAVSLGQRATISCRASESVDNYGISFMHWYQQKPGQPPKLLIYRASNLESGIPARFSGSGSRTDFTLTINPVETDDVATYYCQQSNKDPLTFGAGTKLELKRNDAQPAVYLFQPSPDQLHTGSASVVCLLNSFYPKDINVKWKVDGVIQDTGIQESVTEQDKDSTYSLSSTLTMSSTEYLSHELYSCEITHKSLPSTLIKSFQRSEC
notes: Mouse variable regions on canine IgG constant regions; made in HEK 293 cells; also called canine chimeric form of 11E12
B7: Feline 11E12 1.1 FW2 (antibody, V domains shown)
VH: QVLLVQSGAEVKKPGASVKIFCKASGYSFTYYDINWLRQAPEQGLEWMGWIFPGDGGTKYNETFKGRLTLTADTSTNTVYMELSSLRSADTAMYYCARGGTSVIRDAMDYWGQGALVTVSS
VL: EIQMTQSPSSLSASPGDRVTITCRASESVDNYGISFMHWYQQKPGQPPKLLIYRASNLESGVPSRFSGSGSGTDFTLTISSLEPEDAATYYCQQSNKDPLTFGQGT
notes: Feline 11E12 VL1 with the mouse FW2; Feline heavy and kappa constant regions
B8: ZIL171 (recombinant fully canine antibody) (antibody, V domains shown)
VH: EVQLVESGGDLVKPAGSLRLSCVASGFTFRTYVMNWVRQAPGKGLQWVASINGGGSSPTYADAVRGRFTVSRDNAQNSLFLQMNSLRAEDTAIYFCVVSMVGPFDYWGHGTLVTVSS
VL: SSVLTQPPSVSVSLGQTATISCSGKSLSYYYAQWFQQKAGQAPVLVIYKDTERPSGIPDRFSGSSSGNTHTLTISGARAEDEADYYCESAVSSDTIVFGGGTHLTVLR
notes: also called CAN-ZIL171

How the values were obtained:
[1] = target: T1, wildtype feline IL-31 protein …; experiment: cell-based or functional assay
[2] = target: T2, canine IL-31 protein (Canine_IL31); experiment: cell-based or functional assay
[3] = target: T1, wildtype feline IL-31 protein …; experiment: SPR (Biacore), IL-31 on chip, 1:1 fit
Method: The affinity with which candidate mAbs bind canine and feline IL-31 was determined using surface plasmon resonance (SPR) on a Biacore system (Biocore Life Sciences (GE Healthcare), Uppsala, Sweden). To avoid affinity differences associated with differential surface preparation that can occur when immobilizing antibodies to surfaces; a strategy was employed where IL-31 was directly conjugated to the surface. Immobilization was obtained by amine coupling 5 μg/mL IL-31 using N-hydroxysuccinimide (NHS)/1-Ethyl-3-(3-dimethylaminopropyl) carbodiimide (EDC) chemistry. Chips were quenched with ethanolamine and the affinity with which all candidate mAbs bound to the immobilized IL-31 was evaluated. All curves were fit to a 1:1 model. […] Results for affinity measurements are described herein.

[4] = target: T1, wildtype feline IL-31 protein …; experiment: Biacore, feline IL-31 chip, mAb 100 nM, share of points within parent mean +/-3 SD; set-up: key: % of mutant data points within parent mAb mean ±3 SD
Description: The region of an antibody responsible for antigen recognition represents the paratope. A paratope is created by a combination of amino acids in the complementarity determining regions (CDRs) of both the heavy and light chain variable regions. The binding between antibody and antigen is often mediated by side chains of CDR residues with side chains or carbohydrate moieties of the antigen. To help define critical side chains involved in antibody recognition alanine scanning mutagenesis was performed on each CDR residue in both the heavy and light chain. These mutants were then individually tested for the ability to bind feline IL-31 using the biacore and evaluated for inhibition of IL-31-mediated signaling in the FCWF-4 cell based assay.
The mean response unit of four replicates of the parent mAb+/−3 standard deviations was used to generate parameters to define a threshold of response units comprising both the on- and off-rates antibody binding (FIG. 22). The percentage of data points for each mutant fell within this threshold was then used to define a “% similarity score” (FIG. 23).

[5] = target: T1, wildtype feline IL-31 protein …; experiment: cell-based or functional assay
[6] = target: T3, mutant feline IL-31 15H05 protein (Feline_IL31_15H05_mutant) (feline); experiment: indirect ELISA, IL-31 protein coated
[7] = target: T4, equine IL-31 protein (Equine_IL31); experiment: SPR (Biacore), IL-31 surface, single antibody concentration
Method: For the indirect ELISA method, antibody binding to wildtype and feline IL-31 15H05 mutant proteins was assessed. All nine canine monoclonal antibodies (ZIL1, ZIL8, ZIL8, ZIL11, ZIL69, ZIL94, ZIL154, ZIL159, and ZIL171) were capable of binding to wildtype feline IL-31 and binding was impacted by mutations in the mAb 15H05 epitope region confirming the correct binding phenotype determined during the initial screening used to identify them. In comparison, the 11E12 antibody bound to the wild-type feline IL-31 and its binding was not impacted by the mutations in the 15H05 epitope region as evidenced by the data in FIG. 4. To confirm binding, biacore analysis was performed using canine, feline, equine, human, feline 15H05 mutant, and feline 11E12 mutant IL-31 proteins as surfaces and a single test concentration of antibody. Similar to ELISA observations, all antibodies tested bound to wildtype feline IL-31. In agreement with the data described above in this section, mouse antibodies 11E12 and 15H05 both bound to canine and feline IL-31 surfaces. Three additional antibodies where shown to have this dual binding property, ZIL69 (partial canine binding), ZIL94, and ZIL159. From this group of nine fully canine antibodies, only ZIL1 and ZIL9 cross-reacted with equine IL-31. Of note, antibody 15H05 was the only one of all assayed herein that bound to canine, feline, and equine IL-31 indicating some level of epitope conservation across the three species. In contrast, none of the antibodies described herein bound to human IL-31. Additional biacore surfaces were used to verify ELISA observations showing differential binding of antibodies to wildtype feline IL-31 and two proteins with mutations in the 15H05 (15H05 mutant) or 11E12 (11E12 mutant) epitopes.

[8] = target: T2, canine IL-31 protein (Canine_IL31); experiment: SPR (Biacore), IL-31 on chip, 1:1 fit

Binder	IC50, inhibition of feline IL-31-induced STAT3 phosphorylation, feline FCWF4 cells [1] [µg/mL]	Kd [3] [nM]	koff [3] [s⁻¹]	kon [3] [M⁻¹ s⁻¹]	ELISA OD [6] [OD]	also measured
B1	5.26	0.614	2.3e-05	37400	–	IC50, inhibition of feline IL-31-induced STAT3 phosphorylation, canine DH82 cells [1]: 1.57 µg/mL; IC50, inhibition of canine IL-31-induced STAT3 phosphorylation, canine DH82 cells [2]: 23.2 µg/mL; IC50, inhibition of canine IL-31-induced STAT3 phosphorylation, feline FCWF4 cells [2]: 39.6 µg/mL
B2	–	–	–	–	–	Binding Similarity score [4]: 42.2; % Inhibition Relative to Parent (pSTAT, FCWF-4 cells) [5]: 59.7%
B3	–	–	–	–	0.92	–
B4	–	–	–	–	0.73	–
B5	–	–	–	–	0.92	binding result [7]: no binding
B6	1.15	0.248	0.000108	437000	–	Kd [8]: 0.826 pM; koff [8]: 6.55e-07 s⁻¹; kon [8]: 793000 M⁻¹ s⁻¹
B7	4.38	0.75	0.000639	852000	–	koff [8]: 0.000318 s⁻¹; kon [8]: 45200 M⁻¹ s⁻¹; IC50, inhibition of feline IL-31-induced STAT3 phosphorylation, canine DH82 cells [1]: 5.66 µg/mL
B8	–	–	–	–	–	binding result [7]: no binding
